Laboratory results published in US20230174616A1.
*1 amine or outer side, *2 acyl side, *3 side chain or, on linkers, in order; H or OH if unused. Where no end group is shown, it is not given here. [ ]: non-standard residue; d: D form. Met(35S) = [35S]-methionine label, C[35S]CC[C@H](N[*:1])C(=O)[*:2]

Biological target: biotinylated hPD-L1 (extracellular domain of human PD-L1, Ala18 to Thr239, expressed in E. coli, non-glycosylated) (human)
Experiment: [35S]-labeled truncated variant on immobilized hPD-L1, normalized to [35S]-SPAM

| Binder | binding as compared with full-length SPAM [%] |
| --- | --- |
| [Met(35S)]DHILNKFWILHYAGSGSSGHHHHHHSS [Trunc 4 (SPAM with P2, I3, F4 and L5 deleted)] | < 25 |
| [Met(35S)]LDHILNKFWILHYAGSGSSGHHHHHHSS [Trunc 3 (SPAM with P2, I3 and F4 deleted)] | < 25 |
